Laboratory results published in paper PMC12521702 (2025).

B1: ACE2 (M)-Fc (Fc fusion)
chain: QSTIEEQAKFFLDYFNHEAEDLFYQSSLASWNYNTNITEENVQNMNNAGDKWSAFLKEQSTWAQMYPLQEIQNLTVKLQLQALQQNGSSVLSEDKSKRLNTILNTMSTIYSTGKVCNPDNPQECLLLEPGLNEIMANSLDYNERLWAWESWRSEVGKQLRPLYEEYVVLKNEMARANHYEDYGDYWRGDYEVNGVDGYDYSRGQLIEDVEHTFEEIKPLYEHLHAYVRAKLMNAYPSYISPIGCLPAHLLGDMWGQFWTNLYSLTVPFGQKPNIDVTDAMVDQAWDAQRIFKEAEKFFVSVGLPNMTQGFWEYSMLTDPGNVQKAVCHPTAWDLGKGDFRILMCTKVTMDDFLTAHHEMGHIQYDMAYAAQPFLLRNGANEGFHEAVGEIMSLSAATPKHLKSIGLLSPDFQEDNETEINFLLKQALTIVGTLPFTYMLEKWRWMVFKGEIPKDQWMKKWWEMKREIVGVVEPVPHDETYCDPASLFHVSNDYSFIRYYTRTLYQFQFQEALCQAAKHEGPLHKCDISNSTEAGQKLFNMLRLGKSEPWTLALENVVGAKNMNVRPLLNYFEPLFTWLKDQNKNSFVGWSTDWSPYADQSIKVRISLKSALGDKAYEWNDNEMYLFRSSVAYAMRQYFLKVKNQMILFGEEDVRVANLKPRISFNFFVTAPKNVSDIIPRTEVEKAIRMSRSRINDAFRLNDNSLEFLGIQPTLGPPNQPPVS
B2: ACE2 (M)-Fc-TNFR2 (Fc fusion)
chain: QSTIEEQAKFFLDYFNHEAEDLFYQSSLASWNYNTNITEENVQNMNNAGDKWSAFLKEQSTWAQMYPLQEIQNLTVKLQLQALQQNGSSVLSEDKSKRLNTILNTMSTIYSTGKVCNPDNPQECLLLEPGLNEIMANSLDYNERLWAWESWRSEVGKQLRPLYEEYVVLKNEMARANHYEDYGDYWRGDYEVNGVDGYDYSRGQLIEDVEHTFEEIKPLYEHLHAYVRAKLMNAYPSYISPIGCLPAHLLGDMWGQFWTNLYSLTVPFGQKPNIDVTDAMVDQAWDAQRIFKEAEKFFVSVGLPNMTQGFWEYSMLTDPGNVQKAVCHPTAWDLGKGDFRILMCTKVTMDDFLTAHHEMGHIQYDMAYAAQPFLLRNGANEGFHEAVGEIMSLSAATPKHLKSIGLLSPDFQEDNETEINFLLKQALTIVGTLPFTYMLEKWRWMVFKGEIPKDQWMKKWWEMKREIVGVVEPVPHDETYCDPASLFHVSNDYSFIRYYTRTLYQFQFQEALCQAAKHEGPLHKCDISNSTEAGQKLFNMLRLGKSEPWTLALENVVGAKNMNVRPLLNYFEPLFTWLKDQNKNSFVGWSTDWSPYADQSIKVRISLKSALGDKAYEWNDNEMYLFRSSVAYAMRQYFLKVKNQMILFGEEDVRVANLKPRISFNFFVTAPKNVSDIIPRTEVEKAIRMSRSRINDAFRLNDNSLEFLGIQPTLGPPNQPPVSGGGGSGGGGSGGGGSLPAQVAFTPYAPEPGSTCRLREYYDQTAQMCCSKCSPGQHAKVFCTKTSDTVCDSCEDSTYTQLWNWVPECLSCGSRCSSDQVETQACTREQNRICTCRPGWYCALSKQEGCRLCAPLRKCRPGFGVARPGTETSDVVCKPCAPGTFSNTTSSTDICRPHQICNVVAIPGNASMDAVCTSTSPTRSMAPGAVHLPQPVSTRSQHTQPTPEPSTAPSTSFLLPMGPSPPAEGSTGD
B3: TNFR2-Fc (Fc fusion)
chain: LPAQVAFTPYAPEPGSTCRLREYYDQTAQMCCSKCSPGQHAKVFCTKTSDTVCDSCEDSTYTQLWNWVPECLSCGSRCSSDQVETQACTREQNRICTCRPGWYCALSKQEGCRLCAPLRKCRPGFGVARPGTETSDVVCKPCAPGTFSNTTSSTDICRPHQICNVVAIPGNASMDAVCTSTSPTRSMAPGAVHLPQPVSTRSQHTQPTPEPSTAPSTSFLLPMGPSPPAEGSTGDFALPVGLIVGVTALGLLIIGVVNCVIMTQVKKKPLCLQREAKVPHLPADKARGTQGPEQQHLLITAPSSSSSSLESSASALDRRAPTRNQPQAPGVEASGAGEARASTGSSDSSPGGHGTQVNVTCIVNVCSSSDHSSQCSSQASSTMGDTDSSPSESPKDEQVPFSKEECAFRSQLETPETLLGSTEEKPLPLGVPDAGMKPS

Legend:
[1] = target: SARS-CoV-2 prototype (PT) RBD (SARS-CoV-2, UniProt P0DTC2); assay: SPR
[2] = target: TNF (human, UniProt P01375); assay: SPR
Chain of TNF (P01375 77-233): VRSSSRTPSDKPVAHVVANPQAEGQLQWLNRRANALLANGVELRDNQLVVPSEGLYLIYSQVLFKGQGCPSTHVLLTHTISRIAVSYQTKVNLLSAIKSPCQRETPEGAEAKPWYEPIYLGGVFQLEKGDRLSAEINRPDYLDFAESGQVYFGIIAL

Row | Binder | Kd [1] [nM] | Kd [2] [nM]
1 | B1 | 0.274 | 
2 | B2 | 0.258 | 
3 | B3 |  | 0.0418
